The results in this text go back to publication PMC6771824, “Topology and enzymatic properties of a canonical Polycomb repressive complex 1 isoform” (Febs Letters, 2019).

One test addresses T1, RING1B (human, UniProt Q99496 1-336).
T1 construct: RING1B, human, catalytic E3 ligase subunit of PRC1; called full length in the discussion; primers run from the second codon to the stop codon; no cleavage of the tag is described; also called strep-tagged RING1B; catalytic subunit RING1B; source: Sf21 insect cells (MultiBac baculovirus), alone or co-expressed with other PRC1 subunits; in lysate and purified (strep-tactin resin, two S200 SEC …)
T1 sequence (looked up): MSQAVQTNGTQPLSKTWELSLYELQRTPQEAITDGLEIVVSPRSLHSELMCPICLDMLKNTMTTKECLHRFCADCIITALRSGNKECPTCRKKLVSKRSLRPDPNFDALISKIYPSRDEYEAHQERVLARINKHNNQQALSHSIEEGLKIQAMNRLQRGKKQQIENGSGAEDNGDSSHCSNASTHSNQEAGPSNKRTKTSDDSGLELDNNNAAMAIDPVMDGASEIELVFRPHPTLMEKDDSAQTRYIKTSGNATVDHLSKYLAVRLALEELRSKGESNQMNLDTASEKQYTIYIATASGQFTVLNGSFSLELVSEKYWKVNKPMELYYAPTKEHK
Description: MST; UbcH5c labelled with NT-547 at 100 nM; RING1B (from 80 uM at 2x) or RING1B-PCGF2 (from 38 uM at 2x) in 16 serial dilutions; HEPES 50 mM pH 8, NaCl 75 mM, DTT 1 mM, Tween 0.05%; Monolith NT.115, LED 20%, MST power 40%. Conditions: both partners purified.

For the next test, the target named is T2, RING1B-PCGF2 heterodimer (human, UniProt Q99496 1-336; P35227 1-344).
T2 construct: RING1B, human, full length; the same chain as m1; PCGF2 (aka Mel18), human, full length; the same chain as m2; Pre-formed complex titrated as one molecule against UbcH5c; also called RING1B-PCGF2 subcomplex; source: Sf21 insect cells (MultiBac co-expression), purified (strep-tactin resin, two S200 SEC steps)
T2 sequence (looked up) 1: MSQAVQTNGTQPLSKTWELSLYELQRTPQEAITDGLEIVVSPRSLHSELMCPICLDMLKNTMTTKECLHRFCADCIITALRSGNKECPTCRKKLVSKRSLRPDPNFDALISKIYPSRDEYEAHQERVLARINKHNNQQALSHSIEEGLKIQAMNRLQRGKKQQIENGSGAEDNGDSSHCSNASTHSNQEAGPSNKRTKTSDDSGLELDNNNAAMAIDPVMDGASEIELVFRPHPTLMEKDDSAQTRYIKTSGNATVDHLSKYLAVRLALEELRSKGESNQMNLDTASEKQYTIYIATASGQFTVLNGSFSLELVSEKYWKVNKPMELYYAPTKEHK
T2 sequence (looked up) 2: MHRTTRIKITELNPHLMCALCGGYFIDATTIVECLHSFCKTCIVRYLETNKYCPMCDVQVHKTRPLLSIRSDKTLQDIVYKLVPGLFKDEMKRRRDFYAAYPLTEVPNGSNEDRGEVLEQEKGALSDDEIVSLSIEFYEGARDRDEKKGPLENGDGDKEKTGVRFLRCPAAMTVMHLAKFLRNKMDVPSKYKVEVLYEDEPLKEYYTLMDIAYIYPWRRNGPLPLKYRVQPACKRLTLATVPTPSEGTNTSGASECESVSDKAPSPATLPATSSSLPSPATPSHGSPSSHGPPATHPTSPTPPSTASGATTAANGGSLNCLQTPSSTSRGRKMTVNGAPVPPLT
Described as above. Conditions: both partners purified.

B1: UbcH5c (enzyme)
chain: not shown
modifications: NT-547 fluorescent dye on Cys85
notes: UbcH5c, ubiquitin-conjugating E2 enzyme; also called UbcH5c E2 enzyme; E2 enzyme; source: E. coli Rosetta (DE3), purified (GST resin, 3C cleavage, Ni-NTA flow-through, S200 SEC)
Take B1: the Kd with RING1B was 0.23 ± 0.08 µM; in the test with RING1B-PCGF2 heterodimer it was 4.1 ± 1 µM.
